{"source": "patent US20150216779A1", "about": "“COMPOSITIONS FOR TARGETED ANTI-AGING THERAPY” (THE TEXAS A&M UNIVERSITY SYSTEM, priority 2012, published 2015)", "key": {"[1]": {"assay": "Turbidity after heating at 90° C. for 30 seconds (plate heat exchanger)", "type": "physicochemical", "conditions": "1 mg/ml lactoferrin in 10 mM potassium acetate, pH 6.3; heated at 90° C. for 30 seconds", "procedure": "Formulations containing heat-stabilized lactoferrin (1 mg/ml) without added branched-chain amino acids (Formulation 1) and heat-stabilized lactoferrin (1 mg/ml) with added branched-chain amino acids (2 mg/ml) (Formulation 2) were dissolved in the buffered solution (10 mM potassium acetate, pH 6.3) to make 4 liters solution. The two liquid formulations were heated by using a plate heat exchanger at 90° C. for 30 seconds, and cooled to 5° C., after which they were stored in sterilized bottles, and bubbled with carbon dioxide (CO2) in an aseptic room. The two resultant liquid formulations with a zinc ion concentration of 2.4 mg per 100 ml had excellent taste and appearance. […] Lactoferrin aggregation occurred at pH 6.3, which corresponded to its high thermal instability."}, "[2]": {"conditions": "heat-treated at 63 and 85° C.; cited from earlier work"}}, "data": [{"molecule": "lactoferrin: iron-binding glycoprotein of the transferrin family present in milk; unstabilized buffered solution at 1 mg/ml (protein, UniProt P24627 20-708, looked up) Lactotransferrin: APRKNVRWCTISQPEWFKCRRWQWRMKKLGAPSITCVRRAFALECIRAIAEKKADAVTLDGGMVFEAGRDPYKLRPVAAEIYGTKESPQTHYYAVAVVKKGSNFQLDQLQGRKSCHTGLGRSAGWIIPMGILRPYLSWTESLEPLQGAVAKFFSASCVPCIDRQAYPNLCQLCKGEGENQCACSSREPYFGYSGAFKCLQDGAGDVAFVKETTVFENLPEKADRDQYELLCLNNSRAPVDAFKECHLAQVPSHAVVARSVDGKEDLIWKLLSKAQEKFGKNKSRSFQLFGSPPGQRDLLFKDSALGFLRIPSKVDSALYLGSRYLTTLKNLRETAEEVKARYTRVVWCAVGPEEQKKCQQWSQQSGQNVTCATASTTDDCIVLVLKGEADALNLDGGYIYTAGKCGLVPVLAENRKSSKHSSLDCVLRPTEGYLAVAVVKKANEGLTWNSLKDKKSCHTAVDRTAGWNIPMGLIVNQTGSCAFDEFFSQSCAPGADPKSRLCALCAGDDQGLDKCVPNSKEKYYGYTGAFRCLAEDVGDVAFVKNDTVWENTNGESTADWAKNLNREDFRLLCLDGTRKPVTEAQSCHLAVAPNHAVVSRSDRAAHVKQVLLHQQALFGKNGKNCPDKFCLFKSETKNLLFNDNTECLAKLGGRPTYEEYLGTEYVTAIANLKKCSTSPLLEACAFLTR", "values": [{"measurement": "appearance of solution after heating (turbidity / transparency)", "setting": "[1]", "value": "turbid"}, {"measurement": "immunological properties after heat treatment", "setting": "[2]", "value": "loses its immunological properties"}]}]}
